Reference: patent US20020155995A1 (published 2002)

Target: T1, human CD163, ligand-affinity purified from Triton X-100 solubilised human spleen, placenta and liver membranes (human, UniProt Q86VB7 42-1156)
T1 construct: mature; Natural receptor purified from tissue membranes on Hp-Hb Sepharose; immobilised on BIAcore CM5 chips or in microtiter wells; also called HbSR; Hp-Hb receptor
Experiment: SPR, CD163 immobilised on CM5 chip
Description: Purified CD163 was immobilised at the BIAcore sensor CM5 chip (BIAcore AB) at a concentration of up to 50 μg/ml in 10 mM sodium acetate, pH 4.0, and the remaining binding sites were blocked with 1 M ethanolamine pH 8.5. The surface plasmon resonance signal generated from immobilised CD163 corresponded to 55-66 fmol receptor/mm². The sample and flow buffer was 10 mM Hepes, 150 mM NaCl, 0.5 mM CaCl₂, pH 7.4. The sensor chips were regenerated with 1.6 M glycine-HCl, pH 3.

T1 sequence (Q86VB7 42-1156): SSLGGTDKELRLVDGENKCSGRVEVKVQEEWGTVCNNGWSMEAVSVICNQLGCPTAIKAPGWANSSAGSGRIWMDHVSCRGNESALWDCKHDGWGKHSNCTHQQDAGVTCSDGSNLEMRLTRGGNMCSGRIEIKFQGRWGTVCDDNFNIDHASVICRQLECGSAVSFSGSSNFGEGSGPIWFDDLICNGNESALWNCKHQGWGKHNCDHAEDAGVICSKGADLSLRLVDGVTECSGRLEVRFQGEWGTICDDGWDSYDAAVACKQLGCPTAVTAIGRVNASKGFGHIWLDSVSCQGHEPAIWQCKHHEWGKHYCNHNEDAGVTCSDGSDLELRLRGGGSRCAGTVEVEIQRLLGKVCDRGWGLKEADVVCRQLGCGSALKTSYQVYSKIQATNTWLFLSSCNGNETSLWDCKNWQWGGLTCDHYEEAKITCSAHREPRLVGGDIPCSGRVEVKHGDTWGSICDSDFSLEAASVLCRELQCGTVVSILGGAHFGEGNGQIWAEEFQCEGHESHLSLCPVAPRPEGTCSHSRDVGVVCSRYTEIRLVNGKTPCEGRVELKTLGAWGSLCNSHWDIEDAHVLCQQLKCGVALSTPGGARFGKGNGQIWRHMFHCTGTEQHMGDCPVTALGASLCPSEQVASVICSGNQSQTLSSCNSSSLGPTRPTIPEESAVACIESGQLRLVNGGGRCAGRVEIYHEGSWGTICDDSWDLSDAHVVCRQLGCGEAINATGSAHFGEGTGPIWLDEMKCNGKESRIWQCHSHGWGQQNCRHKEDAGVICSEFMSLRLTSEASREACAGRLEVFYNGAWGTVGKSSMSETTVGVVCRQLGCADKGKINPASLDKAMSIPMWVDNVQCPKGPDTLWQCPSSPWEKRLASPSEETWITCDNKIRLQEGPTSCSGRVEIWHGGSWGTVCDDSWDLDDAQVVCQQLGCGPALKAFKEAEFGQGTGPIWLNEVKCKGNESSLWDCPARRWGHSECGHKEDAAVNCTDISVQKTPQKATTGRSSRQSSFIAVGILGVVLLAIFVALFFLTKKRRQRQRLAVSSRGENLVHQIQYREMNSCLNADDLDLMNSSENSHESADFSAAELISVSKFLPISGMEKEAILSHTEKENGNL

- binding result: no binding (tested: 50 µg/ml Hp(2-2))
B1: human haptoglobin Hp(2-2), non-complexed (other, UniProt P00738 19-406, looked up)
chain: VDSGNDVTDIADDGCPKPPEIAHGYVEHSVRYQCKNYYKLRTEGDGVYTLNDKKQWINKAVGDKLPECEADDGCPKPPEIAHGYVEHSVRYQCKNYYKLRTEGDGVYTLNNEKQWINKAVGDKLPECEAVCGKPKNPANPVQRILGGHLDAKGSFPWQAKMVSHHNLTTGATLINEQWLLTTAKNLFLNHSENATAKDIAPTLTLYVGKKQLVEIEKVVLHPNYSQVDIGLIKLKQKVSVNERVMPICLPSKDYAEVGRVGYVSGWGRNANFKFTDHLKYVMLPVADQDQCIRHYEGSTVPEKKTPKSPVGVQPILNEHTFCAGMSKYQEDTCYGDAGSAFAVHDLEEDTWYATGILSFDKSCAVAEYGVYVKVTSIQDWVQKTIAEN
notes: mature; From Sigma; mixture of multimers; also called Hp(2-2) multimers
